From article PMC10261145, “Ceramide sensing by human SPT-ORMDL complex for establishing sphingolipid homeostasis” (Nature Communications, 2023) come the findings set out here.

Substrate in series [1]: CCCCCCCCCCCCCCCC(=O)SCCNC(=O)CCNC(=O)[C@H](O)C(C)(C)COP(=O)(O)OP(=O)(O)OC[C@H]1O[C@@H](n2cnc3c(N)ncnc32)[C@H](O)[C@@H]1OP(=O)(O)O
The series can be described thus: DTNB CoA-release assay; allosteric sigmoidal fit. It is filed as biochemical, Homo sapiens. The following applies: 10 mM L-serine, 25 μM PLP, pH 7.5, 37 °C. The source says:
DTNB CoA-release assay; allosteric sigmoidal fit on SPT-ORMDL3 complex | increased Khalf for palmitoyl-CoA in the ORMDL3-containing complex (Fig. 1e)

Substrate in the series “purified protein”: N[C@@H](CO)C(=O)O
Kind of series: purified protein. The following applies: 100 μM palmitoyl-CoA, 25 μM PLP, pH 7.5, 37 °C.

Substrate in series [2]: CCCCCCCCCCCCCCCC(=O)SCCNC(=O)CCNC(=O)[C@H](O)C(C)(C)COP(=O)(O)OP(=O)(O)OC[C@H]1O[C@@H](n2cnc3c(N)ncnc32)[C@H](O)[C@@H]1OP(=O)(O)O
Kind of series: DTNB CoA-release assay; allosteric sigmoidal fit. It is filed as biochemical, Homo sapiens. The following applies: 10 mM L-serine, 25 μM PLP, pH 7.5, 37 °C. The source says:
DTNB CoA-release assay; allosteric sigmoidal fit on SPT-ORMDL3 complex | Khalf value of this variant toward palmitoyl-CoA was nearly two times as high
The source holds these as a separate data set.

Substrate in series [3]: CCCCCCCCCCCCCCCC(=O)SCCNC(=O)CCNC(=O)[C@H](O)C(C)(C)COP(=O)(O)OP(=O)(O)OC[C@H]1O[C@@H](n2cnc3c(N)ncnc32)[C@H](O)[C@@H]1OP(=O)(O)O
The series can be described thus: DTNB CoA-release assay; allosteric sigmoidal fit. The following applies: 10 mM L-serine, 25 μM PLP, pH 7.5, 37 °C. The class given is biochemical, Homo sapiens. The source holds these as a separate data set.

B1: SPT-ORMDL3 complex (Homo sapiens) (protein)
chain 1: MNVGTAHSEVNPNTRVMNSRGIWLSYVLAIGLLHIVLLSIPFVSVPVVWTLTNLIHNMGMYIFLHTVKGTPFETPDQGKARLLTHWEQMDYGVQFTASRKFLTITPIVLYFLTSFYTKYDQIHFVLNTVSLMSVLIPKLPQLHGVRIFGINKY
chain 2: MRPEPGGCCCRRTVRANGCVANGEVRNGYVRSSAAAAAAAAAGQIHHVTQNGGLYKRPFNEAFEETPMLVAVLTYVGYGVLTLFGYLRDFLRYWRIEKCHHATEREEQKDFVSLYQDFENFYTRNLYMRIRDNWNRPICSVPGARVDIMERQSHDYNWSFKYTGNIIKGVINMGSYNYLGFARNTGSCQEAAAKVLEEYGAGVCSTRQEIGNLDKHEELEELVARFLGVEAAMAYGMGFATNSMNIPALVGKGCLILSDELNHASLVLGARLSGATIRIFKHNNMQSLEKLLKDAIVYGQPRTRRPWKKILILVEGIYSMEGSIVRLPEVIALKKKYKAYLYLDEAHSIGALGPTGRGVVEYFGLDPEDVDVMMGTFTKSFGASGGYIGGKKELIDYLRTHSHSAVYATSLSPPVVEQIITSMKCIMGQDGTSLGKECVQQLAENTRYFRRRLKEMGFIIYGNEDSPVVPLMLYMPAKIGAFGREMLKRNIGVVVVGFPATPIIESRARFCLSAAHTKEILDTALKEIDEVGDLLQLKYSRHRLVPLLDRPFDETTYEETED
chain 3: MATATEQWVLVEMVQALYEAPAYHLILEGILILWIIRLLFSKTYKLQERSDLTVKEKEELIEEWQPEPLVPPVPKDHPALNYNIVSGPPSHKTVVNGKECINFASFNFLGLLDNPRVKAAALASLKKYGVGTCGPRGFYGTFDVHLDLEDRLAKFMKTEEAIIYSYGFATIASAIPAYSKRGDIVFVDRAACFAIQKGLQASRSDIKLFKHNDMADLERLLKEQEIEDQKNPRKARVTRRFIVVEGLYMNTGTICPLPELVKLKYKYKARIFLEESLSFGVLGEHGRGVTEHYGINIDDIDLISANMENALASIGGFCCGRSFVIDHQRLSGQGYCFSASLPPLLAAAAIEALNIMEENPGIFAVLKEKCGQIHKALQGISGLKVVGESLSPAFHLQLEESTGSREQDVRLLQEIVDQCMNRSIALTQARYLEKEEKCLPPPSIRVVVTVEQTEEELERAASTIKEVAQAVLL
notes: full-length subunits (ORMDL3-FL) co-expressed in HEK293F; N-terminal Flag tag on a subunit; purified in GDN; dimer of heterotetrameric protomers; with Serine palmitoyltransferase small subunit A
Usually Km stands for the substrate concentration at which the rate is half of its maximum. Take B1: the K0.5 in series [1] amounted to 26.85 ± 2.18 µM. The Michaelis-Menten constant (Km) in “purified protein” was determined as 1140 ± 70 µM.

B2: SPT-ORMDL3 complex (Homo sapiens; Q8N138:N13A) (protein)
chain 1: MNVGTAHSEVNPATRVMNSRGIWLSYVLAIGLLHIVLLSIPFVSVPVVWTLTNLIHNMGMYIFLHTVKGTPFETPDQGKARLLTHWEQMDYGVQFTASRKFLTITPIVLYFLTSFYTKYDQIHFVLNTVSLMSVLIPKLPQLHGVRIFGINKY
chain 2: MRPEPGGCCCRRTVRANGCVANGEVRNGYVRSSAAAAAAAAAGQIHHVTQNGGLYKRPFNEAFEETPMLVAVLTYVGYGVLTLFGYLRDFLRYWRIEKCHHATEREEQKDFVSLYQDFENFYTRNLYMRIRDNWNRPICSVPGARVDIMERQSHDYNWSFKYTGNIIKGVINMGSYNYLGFARNTGSCQEAAAKVLEEYGAGVCSTRQEIGNLDKHEELEELVARFLGVEAAMAYGMGFATNSMNIPALVGKGCLILSDELNHASLVLGARLSGATIRIFKHNNMQSLEKLLKDAIVYGQPRTRRPWKKILILVEGIYSMEGSIVRLPEVIALKKKYKAYLYLDEAHSIGALGPTGRGVVEYFGLDPEDVDVMMGTFTKSFGASGGYIGGKKELIDYLRTHSHSAVYATSLSPPVVEQIITSMKCIMGQDGTSLGKECVQQLAENTRYFRRRLKEMGFIIYGNEDSPVVPLMLYMPAKIGAFGREMLKRNIGVVVVGFPATPIIESRARFCLSAAHTKEILDTALKEIDEVGDLLQLKYSRHRLVPLLDRPFDETTYEETED
chain 3: MATATEQWVLVEMVQALYEAPAYHLILEGILILWIIRLLFSKTYKLQERSDLTVKEKEELIEEWQPEPLVPPVPKDHPALNYNIVSGPPSHKTVVNGKECINFASFNFLGLLDNPRVKAAALASLKKYGVGTCGPRGFYGTFDVHLDLEDRLAKFMKTEEAIIYSYGFATIASAIPAYSKRGDIVFVDRAACFAIQKGLQASRSDIKLFKHNDMADLERLLKEQEIEDQKNPRKARVTRRFIVVEGLYMNTGTICPLPELVKLKYKYKARIFLEESLSFGVLGEHGRGVTEHYGINIDDIDLISANMENALASIGGFCCGRSFVIDHQRLSGQGYCFSASLPPLLAAAAIEALNIMEENPGIFAVLKEKCGQIHKALQGISGLKVVGESLSPAFHLQLEESTGSREQDVRLLQEIVDQCMNRSIALTQARYLEKEEKCLPPPSIRVVVTVEQTEEELERAASTIKEVAQAVLL
notes: as for B1
B2: in series [2], the K0.5 came out at 8.05 ± 1.20 µM.

B3: SPT-ORMDL3 (ORMDL3-ΔN17) (Homo sapiens) (protein)
chain 1: MATATEQWVLVEMVQALYEAPAYHLILEGILILWIIRLLFSKTYKLQERSDLTVKEKEELIEEWQPEPLVPPVPKDHPALNYNIVSGPPSHKTVVNGKECINFASFNFLGLLDNPRVKAAALASLKKYGVGTCGPRGFYGTFDVHLDLEDRLAKFMKTEEAIIYSYGFATIASAIPAYSKRGDIVFVDRAACFAIQKGLQASRSDIKLFKHNDMADLERLLKEQEIEDQKNPRKARVTRRFIVVEGLYMNTGTICPLPELVKLKYKYKARIFLEESLSFGVLGEHGRGVTEHYGINIDDIDLISANMENALASIGGFCCGRSFVIDHQRLSGQGYCFSASLPPLLAAAAIEALNIMEENPGIFAVLKEKCGQIHKALQGISGLKVVGESLSPAFHLQLEESTGSREQDVRLLQEIVDQCMNRSIALTQARYLEKEEKCLPPPSIRVVVTVEQTEEELERAASTIKEVAQAVLL
chain 2: MRPEPGGCCCRRTVRANGCVANGEVRNGYVRSSAAAAAAAAAGQIHHVTQNGGLYKRPFNEAFEETPMLVAVLTYVGYGVLTLFGYLRDFLRYWRIEKCHHATEREEQKDFVSLYQDFENFYTRNLYMRIRDNWNRPICSVPGARVDIMERQSHDYNWSFKYTGNIIKGVINMGSYNYLGFARNTGSCQEAAAKVLEEYGAGVCSTRQEIGNLDKHEELEELVARFLGVEAAMAYGMGFATNSMNIPALVGKGCLILSDELNHASLVLGARLSGATIRIFKHNNMQSLEKLLKDAIVYGQPRTRRPWKKILILVEGIYSMEGSIVRLPEVIALKKKYKAYLYLDEAHSIGALGPTGRGVVEYFGLDPEDVDVMMGTFTKSFGASGGYIGGKKELIDYLRTHSHSAVYATSLSPPVVEQIITSMKCIMGQDGTSLGKECVQQLAENTRYFRRRLKEMGFIIYGNEDSPVVPLMLYMPAKIGAFGREMLKRNIGVVVVGFPATPIIESRARFCLSAAHTKEILDTALKEIDEVGDLLQLKYSRHRLVPLLDRPFDETTYEETED
notes: ORMDL3 lacking the N-terminal 16 residues (deletion 2-17, by analogy with the printed ΔN8 = 2-8); HEK293F; purified in GDN; with Serine palmitoyltransferase small subunit A; ORM1-like protein 3
In the case of B3, the K0.5 in series [3] was 2.51 ± 0.33 µM.
